Experimental findings from patent US20250355001A1 (GTINVENT, published 2025) are described below.

For test [1], the target named is T1, full length human tau protein 2N4R (hT40) (human, UniProt P10636 1-758).
T1 construct: recombinant; also called T441
The test is described as follows: Biacore. Summed up: (§1)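 scAb captured on flow cell 2 of an antibody-coated chip, flow cell 1 as reference; tau analyte injected 120 s association, 420 s dissociation, glycine pH 2.0 regeneration, in multi-cycle or single-cycle kinetics format. Responses fitted to a 1:1 binding model for kinetics and affinity.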
Target sequence in this assay (P10636 other isoform, or with tags, fused parts or gaps limits assumed): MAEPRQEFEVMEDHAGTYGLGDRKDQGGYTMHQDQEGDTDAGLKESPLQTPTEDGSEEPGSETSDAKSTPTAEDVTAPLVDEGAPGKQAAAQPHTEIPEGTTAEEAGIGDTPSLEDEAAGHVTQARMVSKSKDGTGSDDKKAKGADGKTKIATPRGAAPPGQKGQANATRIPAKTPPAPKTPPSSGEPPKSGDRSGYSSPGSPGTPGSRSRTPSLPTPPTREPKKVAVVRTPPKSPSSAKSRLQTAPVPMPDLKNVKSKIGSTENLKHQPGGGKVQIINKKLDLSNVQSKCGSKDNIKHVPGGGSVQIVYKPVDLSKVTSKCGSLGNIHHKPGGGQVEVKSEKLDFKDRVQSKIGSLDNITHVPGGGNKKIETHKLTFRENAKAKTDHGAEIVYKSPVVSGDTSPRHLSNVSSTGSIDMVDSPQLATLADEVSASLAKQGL
(SPR reads the build-up and loss of mass on a sensor chip optically.)

Test [2] concerns the target T1, full length human tau protein 2N4R …. The test can be described thus: SPR, summary table. Summed up:
as §1
Target sequence in this assay (P10636 other isoform, or with tags, fused parts or gaps limits assumed): as above

For test [3] the target is unchanged. The test can be described thus: SPR, scAb captured, tau analyte. The essentials:
as §1
Target sequence in this assay (P10636 other isoform, or with tags, fused parts or gaps limits assumed): as above

The target is the same in test [4]. The test is described as follows: sandwich ELISA, S1D12 mAb capture, scAb detection. The essentials:
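Read-out was HRP anti-HuCk with absorbance at 450 nm (positive above 0.3 after background subtraction) or chemiluminescence, including directly HRP-conjugated scAbs.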
Target sequence in this assay (P10636 other isoform, or with tags, fused parts or gaps limits assumed): as above
In general terms: An ELISA detects its analyte on a solid surface through an enzyme-linked reagent.

In test [5] the target is T2, tau parent peptide 355-367 (GSLDNITHVPGGG).
T2 peptide: Biotin-GSLDNITHVPGGG
The test can be described thus: ELISA on biotinylated peptide over streptavidin. As to the method:
Briefly, 5 μg/ml streptavidin (Thermo Fisher) was adsorbed to Nunc 96-well MaxiSorp plates and following incubation at 37° C. for 1 h, the plates were washed as normal and blocked with 2% MPBS. N-terminally biotinylated peptides (Prolmmune Ltd) were added to the plates and incubated for 1 h at 37° C. Subsequently, test scAbs at starting concentrations of 100-500 nM was added and double diluted across the plate for each peptide and incubated for 1 h at 37° C. Rest of the ELISA was conducted as described above and the plates were read at absorbance 450 nm. Immunoreactivity of the scAb of interest was quantified as the % of scAb was bound for each peptide at a chosen concentration (FIG. 15-20).

Test [6] addresses T3, dGAE (tau 297-391) (human, UniProt P10636 614-708).
T3 construct: monomer; also called dGAE95
The test can be described thus: sandwich ELISA, 423 mAb capture, dGAE titrated, scAb at 10 µg/ml.

In test [7] the target is T1, full length human tau protein 2N4R …. The test is described as follows: hT40 ELISA.
Target sequence in this assay (P10636 other isoform, or with tags, fused parts or gaps limits assumed): as above
In test [8] the target is tau fragment 266-359 (R1-3) (human, UniProt P10636 583-676). The test is described as follows: direct ELISA.
The target in test [9] is T3, dGAE (tau 297-391). The test can be described thus: sandwich ELISA, 423 mAb capture, dGAE titrated, scAb at 10 µg/ml [D00041 Figure 34 cont. O].
Test [10] addresses T1, full length human tau protein 2N4R …. The test can be described thus: hT40 ELISA. As to the method:
A series of binding ELISA was performed using various truncated versions of the tau protein and 13mer peptide libraries spanning the entire hT40 molecule for mapping the epitopes of anti-tau scAbs (Full list of protein antigens used is given in Table 14). In general, ELISA plates were coated with 1 μg/ml hT40 or dGA or dGAE or other truncated versions of the protein and in the case of biotinylated peptides, plates were coated with 5 μg/ml Streptavidin followed by 1 μg/ml biotinylated peptide. The plates were blocked with 2% MPBS and scAb samples added at desired starting concentrations and double diluted across the plate. Binding was detected using anti-Human C Kappa HRP conjugated secondary antibody and the resulting immunoreaction was developed and absorbance values measured as described above.
The source holds these as a separate data set.

For test [11] the target is unchanged. The test is described as follows: hT40 ELISA. The source holds these as a separate data set.
Test [12] has the same target. The test can be described thus: hT40 ELISA. The source holds these as a separate data set.
Target sequence in this assay (P10636 other isoform, or with tags, fused parts or gaps limits assumed): as above
Test [13] has as its target T3, dGAE (tau 297-391). The test is described as follows: sandwich ELISA, 423 mAb capture, dGAE titrated, scAb at 10 µg/ml. The source holds these as a separate data set.
Test [14] deals with T4, aggregated dGAE (human, UniProt P10636 614-708, limits assumed).
T4 construct: dGAE aggregated in vitro with DTT, 700 rpm, 37 C, 24 h; also called dGAE aggregates; dGAE agg
The test can be described thus: ELISA, direct immobilisation, SDS + Triton treated dGAE aggregates.

Test [15] concerns the target T4, aggregated dGAE. The test is described as follows: sandwich ELISA, S1D12 mAb capture, SDS + Triton treated dGAE aggregates. As to the method:
(§2) For aggregation, 1000 μL 100 μM dGAE+10 μL 10 mM DTT was added to a ‘LoBind’ microfuge tubes and agitated at 700 RPM/37° C. for 24 hours. Resulting sample centrifuged at 17,000×g/4° C. for 60 min and supernatant discarded to remove left over monomer. Pellet resuspended in half the original volume for future experiments and hereafter referred to as ‘aggregates’. 1 μl of aggregates was added to 1 ml of PBS and SDS was added to a final concentration of 1% (w/v). This was left to incubate on lab bench for 1 h with gentle agitation every 15 minutes. In order to neutralize the SDS effect on ELISA, Triton X-100 added to a final concentration of 3% (v/v) and mixed gently by pipetting to prevent any bubble formation. […] Similarly aggregates treated with only SDS or Triton X-100, untreated aggregates, dGAE monomers treated with only SDS or SDS+Titon X-100 were also added to designated wells as controls. All samples were then double diluted across the plate in final volumes of 100 μl. The final column was left with no protein to act as a blank.

Test [16] concerns the target T3, dGAE (tau 297-391). The test is described as follows: sandwich ELISA, 423 mAb capture, dGAE titrated, scAb at 10 µg/ml [D00039 Figure 34 cont. F].
Another test has as its target T5, tau fragment 186-350 (human, UniProt P10636 503-667).
T5 construct: also called m186-350
The test can be described thus: direct ELISA.

A further test deals with tau fragment 337-368 (human). The test is described as follows: direct ELISA.
Another test addresses T6, tau fragment 369-390 (human).
T6 peptide: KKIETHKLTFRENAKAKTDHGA
The test can be described thus: direct ELISA.

For another test, the target named is T7, tau fragment 369-391 (human).
T7 peptide: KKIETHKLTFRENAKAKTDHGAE
The test can be described thus: direct ELISA.

The next test deals with dGA (tau 297-390) (human, UniProt P10636 614-707). The test is described as follows: SPR, scAb captured, tau analyte. Summed up: as §1
For test [17], the target named is T8, tau parent peptide 367-379 (GNKKIETHKLTFR) (human).
T8 peptide: Biotin-GNKKIETHKLTFR
The test is described as follows: ELISA on biotinylated peptide over streptavidin.

For test [18], the target named is T4, aggregated dGAE. The test is described as follows: sandwich ELISA, Triton-treated aggregates titrated, S1D12 mAb capture. As to the method: as §2

Where two headings read alike, the source gives them in different places. Where no end group is shown, it is not given here. The star is where a group is joined. Biotin = O=C1N[C@H]2[C@H](CS[C@H]2CCCCC(=O)*)N1

dGA (tau 297-390), sequence (P10636 614-707 limits assumed): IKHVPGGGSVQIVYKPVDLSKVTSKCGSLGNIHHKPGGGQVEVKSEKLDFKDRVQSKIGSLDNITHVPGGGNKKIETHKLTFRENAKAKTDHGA
tau fragment 266-359 (R1-3), sequence (P10636 583-676): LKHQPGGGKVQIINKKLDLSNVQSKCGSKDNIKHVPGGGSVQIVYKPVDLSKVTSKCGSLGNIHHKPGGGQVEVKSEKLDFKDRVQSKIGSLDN
T5 sequence (P10636 503-667): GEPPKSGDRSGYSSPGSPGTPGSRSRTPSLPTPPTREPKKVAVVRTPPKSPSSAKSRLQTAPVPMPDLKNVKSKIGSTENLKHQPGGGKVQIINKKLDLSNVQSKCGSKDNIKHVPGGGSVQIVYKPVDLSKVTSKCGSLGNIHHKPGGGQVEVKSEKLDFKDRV
tau fragment 337-368 (human), sequence (peptide, as listed by the source): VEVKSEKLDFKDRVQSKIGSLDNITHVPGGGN

B1: CA4 scAb (scFv, not shown: small tags and cut ends)
scFv: QVQLQESGPSLVKPSQTLSLTCTVSGFSLTSYSVYWVRQAPGQALEWISIMYASGRVDYNPALKSRLSITRDTSKSQFSLSLSSVTTEDTAVYYCTRGIENWGPGLLVTVSSEGKSSGASGESKVDDDIQVTQSPSSLSASLTERVSITCRTSQSVNNYLSWYQQKPGQAPKLLIYYATRLYTDVPSRFSGSGSGTDYTLTITSLEADDTATYYCLQYDSTPLAFGGGTNVEIK
notes: scAb
In the case of B1, binding in [1] was characterised by a dissociation constant (Kd) of 3.6 nM. The Kd (usually the constant that tells how readily two partners part at equilibrium) in [2] came out at 3.61 nM. In addition, in test [3], the dissociation constant Kd stood at 3.61 nM, the koff (commonly the first-order rate constant of dissociation) was 0.00165 s⁻¹ and the kon (usually a measure of how fast the partners come together) amounted to 458000 M⁻¹ s⁻¹. For the same molecule, in test [4], the LoD chemiluminescence detection was 0.37 ng/mL and the LoD colourimetric detection amounted to 6 ng/mL. The binding result in test [5] was “binds”. The EC50 (read off the curve) (in general, the midpoint of the concentration-response curve) in the test with dGAE (tau 297-391) [6] is roughly 0.3 µg/mL.

B2: CE3 scAb (scFv, not shown: small tags and cut ends)
scFv: QVRLQESGPSLVKPSQTLSVTCTVSGFSLISNAVGWVRQAPGKVPESLAGCSSDGKCYYNSALKSRLDITRDTSKNQISLSLSSVTTDDAAVYYCTRGYYPVYGYDYLGTIDYWGPGLLVTVSSEGKSSGASGESKVDDQAVLTQPSSVSGSLGQRVSITCSGSSSNVGRNDVAWFQQLPGSGLRTIIYGTTSRPSGIPDRFSGSKSGVTATLTIDSLQAEDEADYFCASGDSSAINDIFGSGTRLTVLG
notes: scAb
For the molecule B2, the Kd in [2] and in [3] was 3.79 nM throughout. Further, the results for the “EC50 (read off the curve)” value (in test [7]; in test [8]; with dGAE (tau 297-391) [9]) were roughly 0.1 µg/mL, roughly 0.3 µg/mL and roughly 0.3 µg/mL, respectively. Further, the off-rate (koff) in test [3] turned out to be 0.000662 s⁻¹. Further, in test [3], the kon stood at 174000 M⁻¹ s⁻¹.

B3: 412G11 (scFv)
scAb: QVRLQESGPSLVKPSQTLSLTCTVSGFSLTSYALGWVRQAPGRAPEWIGNIWRGGRIEYNPALKSRLSITRDTSKSQVSLSLSSVTTEDTAVYYCSRSGGDWGPGLLVTVSSEGKSSGASGESKVDDQAVLTQPSSVSGSLGQRVSITCSGSSSNVGYGNYVGWYQQVPGSAPKLLIYGATSRASGVPDRFSGSRSENTATLTISSLQAEDEADYYCASYDRSESVVFGSGTRLTVLG
Regarding B3, the “EC50 (read off the curve)” value in test [10] was roughly 2 µg/mL; in [11] it was roughly 5 µg/mL; in test [12] it was roughly 2 µg/mL.

B4: CB3 scAb (scFv, not shown: small tags and cut ends)
scFv: QVQLQESGPSLVKPSQTLSLTCTVSGFSLSSVAVNWVRQAPGKVPEWLGGIISNGGTGYNPALKSRLSITRDTSKSQVSLALTHVTTEDTAVYYCGRGVEWEGSMDYLGPGLLVTVSSEGKSSGSGSETKVDDQSVLTQPSSVSGFLGQRVTITCSGSSSNVGAGSYVGWYQQVPGSGLRILIYGATKRASGLPDRFSGSRSGNTATLTISSLQAEDEADYYCVSYQTDFTLVFGSGTRLTVLG
notes: scAb
With B4, in the test with dGAE (tau 297-391) [13], the “EC50 (read off the curve)” value is roughly 0.4 µg/mL.

B5: CA9 scAb (scFv, not shown: small tags and cut ends)
scFv: QVQLQESGPSLVKPSQTLSLTCTVSGFSLTSNSVGWVRQAPGKAPEWVAGIDTDGEEGYNPALNSRLSITRDTSKSQVSLSLSSVTSEDTAVYYCGRSYRSDGLAYGYVQAIDYWGPGLLVTVSSEGKSSGASGESKVDDQAVLTQPASVSGSLGQRVSITCSGSFIGISSVGWFQQLPGSGLRTIIVASDGRPSGVPDRFSMSKSGNTATLTISSLQAEDEADYFCGSSDRTQYTGVFGSGTRLTVLG
notes: scAb
Take B5: the LoD with aggregated dGAE [14] was 40 ng/mL; with aggregated dGAE [15], 4 ng/mL. Besides, the “EC50 (read off the curve)” value with dGAE (tau 297-391) [16] is roughly 0.2 µg/mL.

B6: S1G2 scAb (scFv, not shown: small tags and cut ends)
scFv: QVQLQESGPSLVKPSQTLSLTCTVSGFSLTSNSVGWVRQAPGKAPEWVAGIDTDGEEGYNPALNSRLSITRDTSKSQVSLSLSSVTSEDTAVYYCGRSYRADGLAYGYVQAIDYWGPGLLVTVSSEGKSSGASGESKVDDQAVVTQPSSVSGSLGQRVSITCSGSFIGISSVGWFQQLPGSGLRTIIVASDGRPSGVPDRFSMSKSGNTATLTISSLQAEDEADYFCGSSDRTPYTGVFGSGTRLTVLG
notes: scAb
As to B6, the dissociation constant Kd in [1] was found to be 0.6 nM; in test [2], 0.17 nM; in test [3], 0.17 nM; with dGA (tau 297-390) it was 0.447 nM. Also, the binding result with tau fragment 186-350 and with tau fragment 337-368 was “no binding (tested: 25 ug/ml)” in each case. For the same molecule, the “EC50 (read off the curve)” value was roughly 0.4 µg/mL with tau fragment 369-390, roughly 0.5 µg/mL with tau fragment 369-391, roughly 10 µg/mL in test [17] and roughly 0.05 µg/mL with aggregated dGAE [18]. The koff in test [3] is 0.00018 s⁻¹; with dGA (tau 297-390), 0.00035 s⁻¹. The kon in test [3] amounted to 1.06e+06 M⁻¹ s⁻¹; in the test with dGA (tau 297-390) it was 783000 M⁻¹ s⁻¹. The LoD chemiluminescence detection in [4] was 0.12 ng/mL. Besides, the LoD colourimetric detection in test [4] is 2 ng/mL. The values for the LoD with aggregated dGAE [14] and in the test with aggregated dGAE [15] were 16 ng/mL and 2 ng/mL, respectively.
